Measurements from PMC3415457, “Cohesin Rings Devoid of Scc3 and Pds5 Maintain Their Stable Association with the DNA” (PLoS Genetics, 2012).

T1: Pds5, recombinant, His6-tagged (S. cerevisiae (budding yeast), UniProt Q04264 1-1277)
T1 construct: also called His6-tagged Pds5; source: E. coli BL21 (DE3) RIL, purified (Ni-NTA, gel filtration); not shown: His6, C-terminal, kept
T1 sequence (looked up): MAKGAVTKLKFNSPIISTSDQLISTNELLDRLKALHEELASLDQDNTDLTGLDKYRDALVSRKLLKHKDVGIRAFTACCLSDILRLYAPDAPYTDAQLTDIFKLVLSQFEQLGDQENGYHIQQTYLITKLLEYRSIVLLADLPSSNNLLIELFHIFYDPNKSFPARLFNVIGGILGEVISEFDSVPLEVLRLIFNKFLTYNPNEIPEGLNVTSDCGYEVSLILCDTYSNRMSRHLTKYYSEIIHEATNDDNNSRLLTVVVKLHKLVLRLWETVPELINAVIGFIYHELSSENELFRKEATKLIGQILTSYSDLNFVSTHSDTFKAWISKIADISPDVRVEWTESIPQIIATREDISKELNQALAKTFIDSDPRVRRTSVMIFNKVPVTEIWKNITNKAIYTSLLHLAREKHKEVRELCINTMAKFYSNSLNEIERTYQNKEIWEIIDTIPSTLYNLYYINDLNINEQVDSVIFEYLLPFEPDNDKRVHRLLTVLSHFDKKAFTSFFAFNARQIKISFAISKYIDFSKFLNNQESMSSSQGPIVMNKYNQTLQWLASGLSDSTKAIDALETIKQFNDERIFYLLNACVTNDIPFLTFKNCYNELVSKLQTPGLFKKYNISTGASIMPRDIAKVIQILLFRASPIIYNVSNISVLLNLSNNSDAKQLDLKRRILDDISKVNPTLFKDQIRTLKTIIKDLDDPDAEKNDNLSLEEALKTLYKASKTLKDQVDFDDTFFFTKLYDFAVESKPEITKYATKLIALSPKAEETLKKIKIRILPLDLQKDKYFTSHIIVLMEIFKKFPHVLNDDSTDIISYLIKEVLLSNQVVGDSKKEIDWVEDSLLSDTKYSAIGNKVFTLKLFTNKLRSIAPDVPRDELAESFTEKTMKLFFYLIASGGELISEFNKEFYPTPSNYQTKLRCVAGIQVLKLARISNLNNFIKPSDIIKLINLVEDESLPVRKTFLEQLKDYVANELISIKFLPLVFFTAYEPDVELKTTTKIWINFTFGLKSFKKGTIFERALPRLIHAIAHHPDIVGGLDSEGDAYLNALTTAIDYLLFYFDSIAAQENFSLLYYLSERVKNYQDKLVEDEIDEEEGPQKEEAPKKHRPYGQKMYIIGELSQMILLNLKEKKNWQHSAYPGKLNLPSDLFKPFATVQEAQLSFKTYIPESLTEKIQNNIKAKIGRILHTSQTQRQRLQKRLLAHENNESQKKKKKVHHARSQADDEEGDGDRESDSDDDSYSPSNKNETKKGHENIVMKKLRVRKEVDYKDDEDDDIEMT

T2: GST fused to the N-terminal region (aa 1–168) of Scc1 (Saccharomyces cerevisiae (strain ATCC …, UniProt Q12158))
T2 chain: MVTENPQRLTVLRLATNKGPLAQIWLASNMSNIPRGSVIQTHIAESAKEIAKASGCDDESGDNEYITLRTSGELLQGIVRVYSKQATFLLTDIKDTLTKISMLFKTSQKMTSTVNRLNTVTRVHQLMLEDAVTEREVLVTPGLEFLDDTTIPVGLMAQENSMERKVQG

T3: GST fused to the C-terminal region (aa 338–566) of Scc1 (Saccharomyces cerevisiae (strain ATCC …, UniProt Q12158))
T3 chain: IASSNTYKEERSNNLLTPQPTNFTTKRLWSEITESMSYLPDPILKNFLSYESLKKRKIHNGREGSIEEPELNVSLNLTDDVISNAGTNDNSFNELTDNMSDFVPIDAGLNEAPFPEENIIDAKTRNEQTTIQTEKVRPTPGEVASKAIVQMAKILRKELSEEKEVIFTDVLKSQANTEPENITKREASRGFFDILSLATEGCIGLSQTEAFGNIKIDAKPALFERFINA

T4: Scc3, recombinant, His6-tagged (S. cerevisiae (budding yeast), UniProt P40541 1-1150)
T4 construct: also called His6-tagged Scc3; source: E. coli BL21 (DE3) RIL, purified (Ni-NTA, gel filtration); not shown: His6, C-terminal, kept
T4 sequence (looked up): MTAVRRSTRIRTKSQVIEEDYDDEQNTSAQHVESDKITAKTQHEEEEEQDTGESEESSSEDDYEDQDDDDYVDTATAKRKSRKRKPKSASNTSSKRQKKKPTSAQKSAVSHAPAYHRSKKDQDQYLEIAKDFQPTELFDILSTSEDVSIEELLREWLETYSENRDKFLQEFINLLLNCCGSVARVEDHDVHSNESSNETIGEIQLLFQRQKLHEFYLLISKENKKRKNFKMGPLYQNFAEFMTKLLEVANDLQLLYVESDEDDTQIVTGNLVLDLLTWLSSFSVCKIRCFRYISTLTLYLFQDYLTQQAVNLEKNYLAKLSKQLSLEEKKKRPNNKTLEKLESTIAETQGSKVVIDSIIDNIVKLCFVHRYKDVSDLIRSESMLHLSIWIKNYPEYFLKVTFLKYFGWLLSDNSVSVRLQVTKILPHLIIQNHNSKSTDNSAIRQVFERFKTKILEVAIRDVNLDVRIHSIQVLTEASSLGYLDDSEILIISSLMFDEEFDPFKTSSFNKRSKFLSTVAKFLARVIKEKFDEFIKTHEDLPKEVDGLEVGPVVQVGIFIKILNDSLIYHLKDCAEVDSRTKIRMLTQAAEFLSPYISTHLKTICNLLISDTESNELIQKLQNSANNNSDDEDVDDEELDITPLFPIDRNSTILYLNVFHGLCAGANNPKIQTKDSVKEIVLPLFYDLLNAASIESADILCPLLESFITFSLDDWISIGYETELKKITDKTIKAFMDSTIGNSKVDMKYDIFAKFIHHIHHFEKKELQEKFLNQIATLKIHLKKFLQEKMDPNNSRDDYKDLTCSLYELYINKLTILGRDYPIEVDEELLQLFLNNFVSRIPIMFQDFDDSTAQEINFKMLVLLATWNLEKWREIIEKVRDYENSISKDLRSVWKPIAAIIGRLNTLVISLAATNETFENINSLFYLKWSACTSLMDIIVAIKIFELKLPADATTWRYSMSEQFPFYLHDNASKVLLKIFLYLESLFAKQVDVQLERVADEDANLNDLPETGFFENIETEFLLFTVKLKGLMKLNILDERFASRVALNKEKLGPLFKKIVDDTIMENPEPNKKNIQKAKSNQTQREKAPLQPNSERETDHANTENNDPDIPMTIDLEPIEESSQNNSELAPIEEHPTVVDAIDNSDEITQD

B1: Wpl1, recombinant, His6-tagged (natural protein, S. cerevisiae (budding yeast), UniProt Q99359 1-647, looked up)
chain: MRAYGKRGPVLRTPFRSNKGLPSSSDVEFSDDDVNSVIPDVSSTISSSIADHPIEGLLDEPRKAQDSSSSFDGANEKPSSQLDSKRNDQNVKIITSSDTSMAFMKDEKLSAFNFLDGSKASKRKRRRTYQKHDANITSSIEPDVQDEDSITMHNEFESIRKIYNDINEFILKLPRADDDILNKMLENEMKMDDSIENNSIRTSKDKKYGKFRTILINKNKENEIMGEEVDQKANTLSLNNADNSNAEKEGLTSTNHYNELKNMGDTIKYQDDIEFLLSNSKSNDNTTVPINEYFKKLLNLSLMIINDEEFFQYAKRYFKKEIIKLSFAQFRSDFPELILLQGYLLHKVSESQSDFPPSFDNFSIELSKDDGKIRTKKNKHIKKLSHLNFEDFLRKTQFKTGLYYSLSLWEMHGNLSLDIIKRISILASNKDLFSRHVKTFIPLLEKLITASEFCHMYIEQPEMFDSLISNLNNQFKDMLDDDSLIKILILLTNMEVHNYTLWKEADMIFQSSMNTILESIHPLTDAKVDNILLHLGLCLNICSRENSRLKLDGKLWYDMKTIFVKMIRDGSDTENRLVQGLFYLNFSFLIKQRKENSNLDPGELNLLLVELEAFKSETSQFNEGISNKIEIALNYLKSIYTSERITI
notes: also called Rad61; His6-tagged Wpl1; source: E. coli BL21 (DE3) RIL, purified (Ni-NTA, gel filtration); not shown: His6, C-terminal, kept
B2: GST fused to the N-terminal region (aa 1–168) of Scc1 (domain or fragment, S. cerevisiae (budding yeast), UniProt Q12158 1-168, looked up)
chain: T2 chain
notes: Scc1 of budding yeast, N-terminal region, aa 1–168; The methods' sentence on C-terminal His6 tags follows the list of constructs; whether it also holds for the GST fusions is not clear; also called N-terminal region of Scc1; Scc1 N-terminus
B3: GST fused to the C-terminal region (aa 338–566) of Scc1 (domain or fragment, S. cerevisiae (budding yeast), UniProt Q12158 338-566, looked up)
chain: T3 chain
notes: Scc1 of budding yeast, C-terminal region, aa 338–566; The methods' sentence on C-terminal His6 tags follows the list of constructs; whether it also holds for the GST fusions is not clear; also called C-terminal part of Scc1; Scc1 C-terminus

Assays:
[1] = biological target: T1, Pds5, recombinant, His6-tagged; assay: co-sedimentation; 10–30% glycerol gradient; 10 mM HEPES-KOH pH 7.5, 75 mM NaCl, 0.25 mM EDTA; proteins mixed and preincubated 1 h at 4°C; 38000 rpm, 38 h, 4°C, SW40 Ti; fractions on Coomassie-stained SDS-PAGE; details: both partners purified
[2] = biological target: T2, GST fused to the N-terminal region (aa …); assay: GST pull-down; Pds5 present: Wpl1 bound as Pds5/Wpl1 complex (Wpl1, Scc3 and Pds5 premixed); direct Wpl1-Scc1 binding alone not reported in text
[3] = biological target: T3, GST fused to the C-terminal region (aa …); assay: GST pull-down; Scc3 present: Wpl1 bound as Scc3/Wpl1 complex (Wpl1, Scc3 and Pds5 premixed); direct Wpl1-Scc1 binding alone not reported in text
[4] = biological target: B1; assay: pull-down; GST fusions of Scc1 regions on glutathione-agarose beads; His6-tagged Wpl1, Scc3 and Pds5 mixed together and pre-incubated 30 min at 4°C, then with beads 2 h at 4°C; 20 mM HEPES pH 7.5, 100 mM NaCl, 5% glycerol, 5 mM 2-mercaptoethanol; washes with 0.5% NP-40; Western blot with Penta-His antibody; details: both partners purified
[5] = biological target: T1, Pds5, recombinant, His6-tagged; assay: as above; details: both partners purified
[6] = biological target: T4, Scc3, recombinant, His6-tagged; assay: as above; details: both partners purified

| binding result [1] | binding result [2] | binding result [3] | binding result [4] | binding result [5] | binding result [6] | Binder |
| --- | --- | --- | --- | --- | --- | --- |
| binds | binds | binds |  |  |  | B1 |
|  |  |  | binds | binds |  | B2 |
|  |  |  | binds |  | binds | B3 |
